Measured values published in a protein production outcome set (Wang et al. 2014).

Experiment: label from the status in PepcDB records
In the case of “MRKILEKVRRNRTYSFGKDLYDRTMRDDVAGLAAQLAYFFLLAIFPGLVFLITLLGFIDLQTESVLNLLEPYVPEDAMSLIEVNVDKVVNEQNGGLLSFGLLSMLWFASNGVNAVMNAFNRAYDVTETRSFIKTRALSIVFTLAIIFMIVFALIVPVFGQVIGAAVFKAIGLSDSFSYVWSITRLVASFFVLFALFSFLYTFAPDRKLKRREVISGATFATVGWIVVSYSFAYYVDKFANYANTYGGLGGIIILMLWFYLTGWVILLGGEINGLLHHYRTGDNNSRNEK”, the protein production is reported as “failed”.
With “MRKLDICIKSGLHFRTHRQHPDDDSVKTLTLECVDPQMVPVPRHWGRLAHRLLERAMTQATRPLPPPDGMGPTYRKILWRLIPFLFVCNLFNYLDRVNVGFAKLQMLRDLGMSQTVYGLGAGIFFIGYLACGVPSNLILQRIGARRWVAIMMVSWGLLSTCLLFVRTPAGFYTLRLLTGAAEAGFFPGILLYLTRWFPRDRHGRVTTVFMSAIPISGVLGGPLSGWILGYFSAGQGGLAGWQWMFLLQGLPTVLLGNGVWFLLSDGVQEASWLNPQEKQALARVLADDEAGKPAGASTSLRAVLCNPAVWLLGTVYFCIQSGVYAINFWLPSIIQDSGVTDPVRIGLMSAIPYLAAAVFMVLMGRSADRRGERRWHLVIPLLMGAAGLCIAASVTDNLGLALFGMTLATMGAVSGLPLFWPLTNGFLTAAAAAGGLALINSTGQVAGFVSPYLVGWIKDTTHSTQLALYVLAGAMLLGAALVLRVPACAVNQ” the protein production was “failed”.
For “MRKLISIFLILCTFLLCGCSDVKHELNRLSLVLCSGIDLSEDGRYIYTVEILNVGASSPQSSGKQGASPSINVFSSEGHTITEAFNNASVLSGEPLFFAHSRMVVVGERLAKYGLSDMMDKLFRHYTIRPDGLIFVTKGNARDIVSTYTPDQPLPAEKLRTMSMLQEMTGYSISYSRLDLVKALTSKSHAGAIGLISLRPDQKFSNRFNMYGAGVFKKDKLVGYLDTYETRGLQWVTGHISSGSILVPLPDGKRIVFDIIDSKSKIKTKVNGNKLTMEINVAEESLISETNDKTNVMKHYKEMNKLAKLESEAIKKEVSSALAASQDRLKTDIFGFGSEIYRDNPKYWKTVENNWDNIFPNVNVKINVKCIVRRPGLTSQPII”, the protein production was “failed”.
For “MRKLRKLLLFSTVLFVVFTQLFGFIITVDAAETATINLSAEKQVIRGFGGMNHPVWISDLTPQQRDTAFGNGEGQLGFTILRIHVDENRNNWSKEVATARRAIELGAIVFASPWNPPSNMVETFTRNGVPNQKRLRYDKYGDYVQHLNDFVAYMKSNGVDLYAISVQNEPDYAHEWTWWTPQEMLRFMRDYAGQINCRVMAPESFQYLKNMSDPILNDPQALANLDILGAHFYGTTVNNMPYPLFEQKGAGKELWMTEVYVPNSDSNSADRWPEALEVAHNMHNALVEGNFQAYVWWYIRRSYGPMKEDGTISKRGYMMAHYSKFVRPGYVRVDATKNPTYNVYLSAYKNKKDNSVVAVVINKSTEAKTINISVPGTSIRKWERYVTTGSKNLRKESDINASGTTFQVTLEPQSVTTFVGGGSSEPQIPVERNAFSKIECEEYNATNSSTVQVVGTGTGSGLGYIENGNYFAYKNINFGNGANSFKIRAATTGTPKIEIRLGSPTGTLAGTLQVAATGGFNAYEEQSCSINKITGVQDVYLVFGGAVNVDWFTFESKQEPTFKYGDLNGDGNVNSTDSTLMSRYLLGIITTLPAGEKAADLNGDGKVNSTDYNILKRYLLKYIDKFPVES”, the protein production was “failed”.
In the case of “MRKLTALFVASTLALGAANLAHAADTTTAAPADAKPMMHHKGKFGPHQDMMFKDLNLTDAQKQQIREIMKGQRDQMKRPPLEERRAMHDIIASDTFDKVKAEAQIAKMEEQRKANMLAHMETQNKIYNILTPEQKKQFNANFEKRLTERPAAKGKMPATAELEHHHHHH”, the protein production is reported as “not failed”.
In the case of “MRKNDIADISPRDPMLALVLLTRLPLPALPEAAFARQAAAVWAFPLAGLAVGALAWATGALALAAGLAPVAVAGLMLVVLVMTTGGMHEDGLADTADGLWGGFTPERRLEIMKDSHIGTYGVLALILSQGLRLAALSALVAGGALGAAVAAAVWSRALMPVLMAALPNARGTGLSQSVGRPTPQAVTLGLGLAAVLALLLAGWAVLIPALLAVLSVLGLAALARAKIGGQTGDILGAAQQLAEITCLLALSAAL”, the protein production is reported as “failed”.
In the case of “MRKPIEHTADIAYEISGNSYEELLEEARNILLEEEGIVLDTEEKEKMYPLEETEDAFFDTVNDWILEISKGWAPWRIKREGNELKVTFRKIRKKEGTEIKALTYHLLKFERDGDVLKTKVVFDT”, the protein production is reported as “not failed”.
With “MRKRIEWIDIAKGSAILAVVIGHTLGPYNGQFFGSLIFAFHMPIFFMLSGYLYRSRPARQECQRGIINLLLPYLATAVVLLVVSAIARLLPNPLLNAYFPSWRQGLIATAYGAGSAVFNPWHWQVQPIGAVWFLLSMFIALQLFNGVMLLTARRHQRWRQAIVRGGVFAIFAILGGWLGHAAYLPWAVNAALLAQLFLYAGYLVKQTALLSRISSAWYLLFTFMWLVSAFQGYFALTVPTSPNLLISVMGGVAGSLCIIRVSDWLSHYPNARPIKWLKRYGQLSLVVLCFHLIDLNVIGIEGWLTNHLITHMGPLVTTIIAISYRIGFVTVAMLAIPHLPGIRACFLPRQYLFRRLQRR” the protein production was “failed”.
For “MRKRNPRRATPEELRVCSVLKEKGTREELAHLAARGEWSNVPAYNASREQIADHLGKSVSPESDASFFDSRRFSEAIVLLKSRPVLLVKNGIFDEAPLAGLEQRLKKHRAALATPIRSVGRLELIDHDSMDWCGTGWRIEDDLIVTNRHVASLFAERQGSLFRFRLNQAGKQVRTRVDFREEYRQPESDEHVIARVLWIAPDVSEAPDMAILQVVKGDLLPPPLVLARQDAEPRQAVAVVGYPARDSRNDAGAMEDIFGNIYDVKRFAPGEVVGLPHDAWYLTHDCSTLGGNSGSAVLSIDGGEVVGLHFGGQFRKTNYAVKASVIRSLLARRAWVPVAGAELKRGVPRFQEKQRSVADLAERKGFDEAFLGPKAALPKPGKSHQVLPVGKGTRLDYLHFSVVMSASRRLPILTAVNIDGALKRSLKRKDSWGFDPRIEAAAQVGHKDFYGPASFDKGHMVRREDPGWGDSDAVARQAEDDTFVYTNAVPQVAQLNQRSWLSLEDYVLQNARSEGFRISVFTGPVFRDDDPLYQGVQVPLEFWKVVAMIDADSGELGVSAYLLGQEGMMPSEGFRYGAFKTYQVPLAKVEASADLRFSSALRKADVLAGTPLEEALESGRFIEIDGPDDLLLSRPGPAGKGPLRFRPAAATRVAVR”, the protein production was “failed”.
For “MRKTPSHTEKKMVYSIRSLKNGTGSVLIGASLVLLAMATPTISSDESTPTTNEPNNRNTTTLAQPLTDTAAGSGKNESDISSPGNANASLEKTEEKPAASPADPAPQTGQDRSSEPTTSTSPVTTETKAEEPIEDNYFRIHVKKLPEENKDAQGLWTWDDVEKPSENWPNGALSFKDAKKDDYGYYLDVKLKGEQAKKISFLINNTAGKNLTGDKSVEKLVPKMNEAWLDQDYKVFSYEPQPAGTVRVNYYRTDGNYDKKSLWYWGDVKNPSSAQWPDGTDFTATGKYGRYIDIPLNEAAREFGFLLLDESKQGDDVKIRKENYKFTDLKNHSQIFLKDDDESIYTNPYYVHDIRMTGAQHVGTSSIESSFSTLVGAKKEDILKHSNITNHLGNKVTITDVAIDEAGKKVTYSGDFSDTKHPYTVSYNSDQFTTKTSWRLKDETYSYDGKLGADLKEEGKQVDLTLWSPSADKVSVVVYDKNDPDKVVGTVALEKGERGTWKQTLDSTNKLGITDFTGYYYQYQIERQGKTVLALDPYAKSLAAWNSDDSKIDDAHKVAKAAFVDPAKLGPQDLTYGKIHNFKTREDAVIYEAHVRDFTSDPAIAKDLTKPFGTFEAFIEKLDYLKDLGVTHIQLLPVLSYYFVNELKNHERLSDYASSNSNYNWGYDPQNYFSLTGMYSSDPKNPEKRIAEFKNLINEIHKRGMGAILDVVYNHTAKVDLFEDLEPNYYHFMDADGTPRTSFGGGRLGTTHHMTKRLLIDSIKYLVDTYKVDGFRFDMMGDHDAASIEEAYKAARALNPNLIMLGEGWRTYAGDENMPTKAADQDWMKHTDTVAVFSDDIRNNLKSGYPNEGQPAFITGGKRDVNTIFKNLIAQPTNFEADSPGDVIQYIAAHDNLTLFDIIAQSIKKDPSKAENYAEIHRRLRLGNLMVLTAQGTPFIHSGQEYGRTKQFRDPAYKTPVAEDKVPNKSHLLRDKDGNPFDYPYFIHDSYDSSDAVNKFDWTKATDGKAYPENVKSRDYMKGLIALRQSTDAFRLKSLQDIKDRVHLITVPGQNGVEKEDVVIGYQITAPNGDIYAVFVNADEKAREFNLGTAFAHLRNAEVLADENQAGPVGIANPKGLEWTEKGLKLNALTATVLRVSQNGTSHESTAEEKPDSTPSKPEHQNEASHPAHQDPAPEARPDSTKPDAKVADAENKPSQATADSQAEQPAQEAQASSVKEAVRNESVENSSKENIPATPDKQAELPNTGIKNENKLLFAGISLLALLGLGFLLKNKKEN”, the protein production was “failed”.
With “MRKVLVTVLLVLTVLSLFSAVKIAVILPMTGGISAFGRMVWEGIQIAHEEKPTVLGEEVELVLLDTRSEKTEAANAAARAIDKEKVLAIIGEVASAHSLAIAPIAEENKVPMVTPASTNPLVTQGRKFVSRVCFIDPFQGAAMAVFAYKNLGAKRVVVFTDVEQDYSVGLSNFFINKFTELGGQVKRVFFRSGDQDFSAQLSVAMSFNPDAIYITGYYPEIALISRQARQLGFTGYILAGDGADAPELIEIGGEAVEGLLFTTHYHPKAASNPVAKKFVEVYKEKYGKEPAALNALGYDAYMVLLDAIERAGSFDREKIAEEIRKTRNFNGASGIINIDENGDAIKSVVVNIVKNGSVDFEAVINPDDLK” the protein production was “not failed”.
With “MRLGPAATSPSSGPRILPPAAHGDPRTAALPRATHLQIHDRRALSGLRDHPHLESVHLKGDFTLADLKALPTTLRHLDLSECTGSAKSFRAIAYLAGLPLESLNVAGAEIGDGGARLLAANPSLKSLNAASGGISASGARMLAESPTLESLDLTQNAIGDAGAQALAGSRSLRHLAVRNGLVTDLGTRALALNPALVSLDLGNLVTETGNQVEQDGYDKTANNITAQGAWALAQNRSLKSLSVQGNDLCGDDGVRALARNRTLTSLNVAFTNMTSASAKALADNPVLTSLSVRWNYGLDDAGAMELAMSRSLTSLDARDTGMSARGALALAANARISVWHDHANPVRAPLGEPPLSGLAGDPGQASRTAPGGAIWSSAAQARHVSAEAPANSAMTASTREGFALIDPFFNRVARESGLNVQAPQEMPWTRLRPSASEANHGNAGAHGASAEGLASSRMAASIREGLGLIDQYVDRMGREYGLPVRAPAAQPDSAAPEATQPTLPADVWQTIAAQADPRVRRTLSTVSKPLRAAALAATKHLTVWDKAAFSRLRNYPALESLSFHGPLSLADLRALPPSVRHLDLSGCTGSAVSEAGLAYLARLPLASLDLSDTGIGNRGAQALAASASLTSLNLSGNGIGTAGAEALGRNTVLTALDISANPIRNAGAQALAGSRSLTSLELRDTGIEDGGIEALAANTVLRSLDISGNDLSDQSAAALAANRTLTSLKANGCGLTNDMAQQLARIRSLRTLEVGSNSIGDAGVLTIARNASLRSLNLSRNPITPQGLYPLALSRTLKSLDVSRIGCGDRGALLLSGNRALTSLKLGFNRVSSEGARRLAANRTLVSLDLRGNTIDVAAARALANAEPLASLNVSDCRLDDAVACALAESRTLTSLDVSWNRLSHRAARALANNPVLASLYISHNDIGPEGAQALADSASLTFLDARANRIGEAGARLLEANTRMRGTPQNPHFLAQDVPE” the protein production was “failed”.
With “MRLISKPVLCNYYVTYRCNATCGFCDIWEKPSPYVTPEAVEQNMRDLKKLGVKVIDFTGGEPLLHREMDTLLRIAKKYGMITTLTTNALLYPKWAERLKGLIDMLHFSLDSPDKAEHDTLRGVACFDFVLESIEKAKALG” the protein production was “failed”.
With “MRLKDLGERALLARLAPLGYPPEAPLPPGDDAGGVWAEGRAWLLKTDGFLYREVALKGMGPFEVGFRGVAATASDLLAKMGRPLGFTLGLFLPEDLEEGFVLELVRGAAEAAKRLGAFLLGGDTNRGVEVALTVSGYALAEAPLPRKALPGDLLYLAGDRWGRTGAAIRAHYEGRSLEGFPKIREAAFYPLPRLELLALSGLLRGSLDSSDGLAETLWQLADLGVGVEVEALPLYPDVLAFAGSEEAALELVLYGGEEFEAVLVVPQEGAAAVEARAKAKGLPLFRAGRVVAGEGVYLRGAPLPRKGYAHF” the protein production was “not failed”.
